# Experimental data: patent publication US20190382503A1 (published 2019)
# T1: cynomolgus 5T4 on cells (cynomolgus macaque, UniProt Q4R8Y9 35-420)
# T1 construct: whole, on cells; also called CHO-K1/cynomolgus 5T4
# T1 sequence (looked up): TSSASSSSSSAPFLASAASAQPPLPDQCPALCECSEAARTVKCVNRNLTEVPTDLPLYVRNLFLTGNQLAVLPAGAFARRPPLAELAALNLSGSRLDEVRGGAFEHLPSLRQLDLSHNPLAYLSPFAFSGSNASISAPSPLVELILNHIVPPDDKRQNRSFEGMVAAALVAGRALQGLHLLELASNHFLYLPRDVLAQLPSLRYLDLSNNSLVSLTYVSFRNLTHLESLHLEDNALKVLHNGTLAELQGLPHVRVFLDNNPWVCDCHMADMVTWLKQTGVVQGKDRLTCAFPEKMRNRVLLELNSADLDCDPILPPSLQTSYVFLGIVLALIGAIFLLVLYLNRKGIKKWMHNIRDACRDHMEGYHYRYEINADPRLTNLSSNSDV
# T2: recombinant human 5T4 extracellular domain (human, UniProt Q13641 32-355)
# T2 construct: The entry starts at Met 1; also called Hu 5T4; 5T4 ECD
# T2 sequence: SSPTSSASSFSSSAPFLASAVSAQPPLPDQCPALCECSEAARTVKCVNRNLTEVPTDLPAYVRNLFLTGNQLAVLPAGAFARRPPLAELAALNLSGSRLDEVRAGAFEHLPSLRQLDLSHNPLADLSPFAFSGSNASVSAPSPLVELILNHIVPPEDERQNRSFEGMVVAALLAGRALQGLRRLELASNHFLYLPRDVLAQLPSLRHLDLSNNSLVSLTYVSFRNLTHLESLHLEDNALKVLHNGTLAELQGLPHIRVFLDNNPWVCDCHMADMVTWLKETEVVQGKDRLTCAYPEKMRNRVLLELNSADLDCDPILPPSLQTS
# T3: human 5T4 on cells (human, UniProt Q13641 32-420)
# T3 construct: Human 5T4 on transfected cells (CHO-K1, CT26, B16) or endogenous on human tumour lines; the cell line is named under assay; also called trophoblast glycoprotein; TPBG
# T3 sequence: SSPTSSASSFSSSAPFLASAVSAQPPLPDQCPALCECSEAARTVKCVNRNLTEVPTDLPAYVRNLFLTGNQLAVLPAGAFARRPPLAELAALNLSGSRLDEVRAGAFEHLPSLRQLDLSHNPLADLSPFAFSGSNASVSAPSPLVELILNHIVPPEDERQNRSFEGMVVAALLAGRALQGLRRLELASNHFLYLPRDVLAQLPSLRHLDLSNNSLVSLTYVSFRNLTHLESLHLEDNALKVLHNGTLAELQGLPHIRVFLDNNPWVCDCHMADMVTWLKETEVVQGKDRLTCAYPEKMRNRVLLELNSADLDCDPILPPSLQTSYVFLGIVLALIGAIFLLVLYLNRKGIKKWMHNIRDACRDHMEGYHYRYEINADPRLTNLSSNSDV
# Tests used:
# [1] = target: T1, cynomolgus 5T4 on cells; assay: flow cytometry, CHO-K1/cynomolgus 5T4 transfectants (FIG. 7)
# Description: (§1) Binding studies were performed by standard flow cytometry-based staining procedures two cell lines expressing 5T4:CHO-K1 cells (obtained from Alligator) transduced with human or cynomolgus macaque 5T4 and SKOV-3 human ovarian adenocarcinoma cells which express (human) 5T4. All labeling and washes were performed in U-bottom 96-well plates in saline buffer with 0.1% BSA and 2 mM EDTA. Cell were plated at approximately 100,000 cells per well and incubated with a range of 100 nM to 0.05 nM concentrations of test molecules in 50 μL volume/well, for 30 minutes on ice. Cells were washed three times then incubated for another 30 min on ice with fluorescently-labeled secondary polyclonal antibody, F(ab′)² goat anti-human IgG (Jackson ImmunoResearch Laboratories). The cells were then washed twice and the samples acquired in a BD LSRII or a Symphony A3 flow cytometer. The sample files were analyzed using FlowJo software; the mean fluorescence intensity (MFI-mean) or median fluorescence intensity (MFI-median) of the live population of cells in each well was calculated after gating on live cells (forward vs side scatter). Nonlinear regression analysis to determine EC₅₀ values was performed in GraphPad Prism 6® graphing and statistics software.
# [2] = target: T2, recombinant human 5T4 extracellular …; assay: SPR, Biacore T200, bispecific captured by anti-human IgG, monomeric ECD injected, 1:1 model
# Description: (§2) Goat anti-human IgG F(ab′)2 fragment (Jackson ImmunoResearch) at 20 μg/mL in 10 mM sodium acetate (pH 4.5) was immobilized at a density of 2000 response units (RU) onto the flow cell of a CM5 research-grade sensor chip (GE) by standard amine coupling chemistry. Each bispecific variant at 200 nM in HBS-EP+ buffer was captured in the flow cell with the immobilized anti-human IgG at a flow rate of 50 μL/min for 60 sec to reach ˜500 RU response, leaving one flow cell surface unmodified as the reference. Following a 30 sec stabilization period, four different concentrations of each ECD (0, 20, 60, and 180 nM) were injected at 50 μL/min for either 120 sec followed by a 240 sec dissociation period (for 5T4) or 90 sec followed by a 180 sec dissociation period (for 4-1BB). Regeneration was achieved by duplicate injections of 10 mM glycine (pH 1.5) at a flow rate of 50 μL/min for 30 sec followed by HBS-EP+ buffer stabilization for 1 min.
# (§3) Sensorgrams obtained from kinetic SPR measurements were analyzed by the double subtraction method. The signal from the reference flow cell was subtracted from the analyte binding response obtained from flow cells with immobilized or captured ligands. Buffer reference responses were then averaged from multiple injections. The averaged buffer reference responses were then subtracted from analyte binding responses, and the final double-referenced data were analyzed with Biacore T200 Evaluation software (2.0, GE), globally fitting data to derive kinetic parameters. All sensorgrams were fitted using a simple one-to-one binding model.
# [3] = target: T4, recombinant human CD137 extracellular domain (human, UniProt Q07011 24-186); assay: as above
# T4 construct: The entry starts at Met 1; also called Hu CD137; 4-1BB ECD
# Description: as §2, §3
# [4] = target: T3, human 5T4 on cells; assay: flow cytometry, SKOV-3 cells (FIG. 6)
# Description: as §1
# The differences in EC₅₀ values between constructs were more evident when binding assays were conducted on SKOV-3 cells. […]
# [5] = target: T1, cynomolgus 5T4 on cells; assay: flow cytometry, CHO-K1/cynomolgus 5T4 transfectants (FIG. 14)
# Description: as §1
# All the constructs bound with EC₅₀ values in the range of 1 to 3 nM. […]
# [6] = target: T5, CD137 / 4-1BB (soluble antigen, form not stated) (UniProt Q07011 24-186, limits assumed); assay: ELISA
# T5 construct: also called biotinylated 4-1BB antigen; CD137 in ELISA
binding result [1],Kd [2] [nM],koff [2] [s⁻¹],kon [2] [M⁻¹ s⁻¹],Kd [3] [nM],koff [3] [s⁻¹],kon [3] [M⁻¹ s⁻¹],binding result [4],binding result [5],EC50 [6] [nM],Binder
binds,35,0.00072,21000,73,0.027,370000,,,,"ALG.APV-187 (bispecific antibody, scFv-Fc-scFv (ADAPTIR) homodimer with stabilizing disulfide in the 1210 scFv) EVQLLESGGGLVQPGGSLRLSCAASGFTFSHGSMYWVRQAPGKGLEWVSSISSGSGSTYYADSVKGRFTISHDNSKNTLYLQMNSLRAEDTAVYYCARSSYYGSYYSIDYWGQGTLVTVSSGGGGSGGGGSGGGGSGGGGSDIQMTQSPSSLSASVGDRVTITCRASQSISSYLNWYQQKPGKAPKLLIYAASSLQSGVPSRFSGSGSGTDFTLTISSLQPEDFATYYCQQYYDNLPTFGQGTKLEIKSSEPKSSDKTHTCPPCPAPEAAGAPSVFLFPPKPKDTLMISRTPEVTCVVVDVSHEDPEVKFNWYVDGVEVHNAKTKPREEQYNSTYRVVSVLTVLHQDWLNGKEYKCAVSNKALPAPIEKTISKAKGQPREPQVYTLPPSRDELTKNQVSLTCLVKGFYPSDIAVEWESNGQPENNYKTTPPVLDSDGSFFLYSKLTVDKSRWQQGNVFSCSVMHEALHNHYTQKSLSLSPGSGGGGSGGGGSGGGGSPSEVQLLESGGGLVQPGGSLRLSCAASGFTFSSYAMSWVRQAPGKCLEWVSAISGSGGSTYYADSVKGRFTISRDNSKNTLYLQMNSLRAEDTAVYYCARYYGGYYSAWMDYWGQGTLVTVSSGGGGSGGGGSGGGGSGGGGSDIQMTQSPSSLSASVGDRVTITCRASQSISSFLNWYQQKPGKAPKLLIYAASSLQSGVPSRFSGSGSGTDFTLTISSLQPEDSATYYCQQTYGYLHTFGCGTKLEIKR"
binds,,,,,,,binds,,,"ALG.APV-196 (bispecific antibody, scFv-Fc-scFv (ADAPTIR) homodimer) EVQLLESGGGLVQPGGSLRLSCAASGFTFSYGSMYWVRQAPGKGLEWVSSISSGSGSTYYADSVKGRFTISHDNSKNTLYLQMNSLRAEDTAVYYCARSSYYGSYYSIDYWGQGTLVTVSSGGGGSGGGGSGGGGSGGGGSDIQMTQSPSSLSASVGDRVTITCRASQSISSYLNWYQQKPGKAPKLLIYAASSLQSGVPSRFSGSGSGTDFTLTISSLQPEDFATYYCQQYYDNLPTFGQGTKLEIKSSEPKSSDKTHTCPPCPAPEAAGAPSVFLFPPKPKDTLMISRTPEVTCVVVDVSHEDPEVKFNWYVDGVEVHNAKTKPREEQYNSTYRVVSVLTVLHQDWLNGKEYKCAVSNKALPAPIEKTISKAKGQPREPQVYTLPPSRDELTKNQVSLTCLVKGFYPSDIAVEWESNGQPENNYKTTPPVLDSDGSFFLYSKLTVDKSRWQQGNVFSCSVMHEALHNHYTQKSLSLSPGSGGGGSGGGGSGGGGSPSEVQLLESGGGLVQPGGSLRLSCAASGFDFESYAMSWVRQAPGKCLEWVSAISGSGGSTYYADSVKGRFTISRDNSKNTLYLQMNSLRAEDTAVYYCARYYGGYYSAWMDYWGQGTLVTVSSGGGGSGGGGSGGGGSGGGGSDIQMTQSPSSLSASVGDRVTITCRASQSIRSALNWYQQKPGKAPKLLIYAASSLQSGVPSRFSGSGSGTDFTLTISSLQPEDFATYYCQQTYGYLHTFGCGTKLEIKR"
binds,,,,,,,binds,,,"ALG.APV-198 (bispecific antibody, scFv-Fc-scFv (ADAPTIR) homodimer) EVQLLESGGGLVQPGGSLRLSCAASGFTFSHGSMYWVRQAPGKGLEWVSSISSGSGSTYYADSVKGRFTISHDNSKNTLYLQMNSLRAEDTAVYYCARSSYYGSYYSIDYWGQGTLVTVSSGGGGSGGGGSGGGGSGGGGSDIQMTQSPSSLSASVGDRVTITCRASQSISSYLNWYQQKPGKAPKLLIYAASSLQSGVPSRFSGSGSGTDFTLTISSLQPEDFATYYCQQYYDNLPTFGQGTKLEIKSSEPKSSDKTHTCPPCPAPEAAGAPSVFLFPPKPKDTLMISRTPEVTCVVVDVSHEDPEVKFNWYVDGVEVHNAKTKPREEQYNSTYRVVSVLTVLHQDWLNGKEYKCAVSNKALPAPIEKTISKAKGQPREPQVYTLPPSRDELTKNQVSLTCLVKGFYPSDIAVEWESNGQPENNYKTTPPVLDSDGSFFLYSKLTVDKSRWQQGNVFSCSVMHEALHNHYTQKSLSLSPGSGGGGSGGGGSGGGGSPSEVQLLESGGGLVQPGGSLRLSCAASGFDFESYAMSWVRQAPGKCLEWVSAISGSGGSTYYADSVKGRFTISRDNSKNTLYLQMNSLRAEDTAVYYCARYYGGYYSAWMDYWGQGTLVTVSSGGGGSGGGGSGGGGSGGGGSDIQMTQSPSSLSASVGDRVTITCRASQSIRSALNWYQQKPGKAPKLLIYAASSLQSGVPSRFSGSGSGTDFTLTISSLQPEDFATYYCQQTYGYLHTFGCGTKLEIKR"
,79,0.0012,15000,59,0.033,550000,,binds,0.7,"ALG.APV-210 (bispecific antibody, scFv-Fc-scFv (ADAPTIR) homodimer with stabilizing disulfide in the 1210 scFv; also called ALG.APV-223; 5T4-CD137 bispecific antibody) EVQLLESGGGLVQPGGSLRLSCAASGFTFSHGSMYWVRQAPGKGLEWVSSISSGSGSTYYADSVKGRFTISHDNSKNTLYLQMNSLRAEDTAVYYCARSSYYGSYYSIDYWGQGTLVTVSSGGGGSGGGGSGGGGSGGGGSDIQMTQSPSSLSASVGDRVTITCRASQSISSYLNWYQQKPGKAPKLLIYAASSLQSGVPSRFSGSGSGTDFTLTISSLQPEDFATYYCQQYYDNLPTFGQGTKLEIKEPKSSDKTHTCPPCPAPEAAGAPSVFLFPPKPKDTLMISRTPEVTCVVVDVSHEDPEVKFNWYVDGVEVHNAKTKPREEQYNSTYRVVSVLTVLHQDWLNGKEYKCAVSNKALPAPIEKTISKAKGQPREPQVYTLPPSRDELTKNQVSLTCLVKGFYPSDIAVEWESNGQPENNYKTTPPVLDSDGSFFLYSKLTVDKSRWQQGNVFSCSVMHEALHNHYTQKSLSLSPGSGGGGSGGGGSGGGGSPSEVQLLESGGGLVQPGGSLRLSCAASGFTFSSYAMSWVRQAPGKCLEWVSAISGSGGSTYYADSVKGRFTISRDNSKNTLYLQMNSLRAEDTAVYYCARYYGGYYSAWMDYWGQGTLVTVSSGGGGSGGGGSGGGGSGGGGSDIQMTQSPSSLSASVGDRVTITCRASQSISSFLNWYQQKPGKAPKLLIYAASSLQSGVPSRFSGSGSGTDFTLTISSLQPEDSATYYCQQTYGYLHTFGCGTKLEIKR"
